Molecular target: CD3 on Jurkat cells (Jurkat靶标细胞) (UniProt P07766)
Experiment: flow cytometry, culture supernatant on Jurkat cells

Chain of UniProt P07766 (P07766 23-207): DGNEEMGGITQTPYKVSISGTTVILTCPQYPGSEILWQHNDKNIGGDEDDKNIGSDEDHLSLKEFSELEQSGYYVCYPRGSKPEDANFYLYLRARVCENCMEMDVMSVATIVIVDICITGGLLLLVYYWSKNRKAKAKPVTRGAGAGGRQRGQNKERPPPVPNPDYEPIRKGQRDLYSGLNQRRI

结合MFI: 521 MFI
B1: A30322 抗CD3单域抗体 (sdAb) (VHH, not shown: large carriers)
VHH: EVQLVECGGGLVQAGGSLRLSCAASGRTFDTMGWFRQAPGKEREFVAAVRWSSGNTYYGNTVKGRFTISRDTATNTVYLEMNSLKHEDTAVYYCAARLAGRGAADHWGQGTQVTVSS

Source: patent CN106117361A
